Here are results for one molecule from US20200384079A1, “Compositions of Fibroblast Growth Factor LIgands and Methods of Treating Patients Undergoing Ischemia-Reperfusion Therapy” (University of Cincinnati, priority 2017, published 2020).

In one series the test system is FGF receptors. As to conditions: published data; cited from earlier work.
The test system of another series is trypsin. Kind of series: Susceptibility to proteolytic degradation by trypsin (fluorescence emission). The class given is in vitro ADME. The protocol:
Ligand bioavailability (i.e., pharmacokinetic mechanism) can be a significant pharmacological limitation for therapeutic applicability. […] Susceptibility to protease action of FGF1^ΔTS was determined by monitoring changes in fluorescence emission during degradation by trypsin, FGF1^ΔTS (20-fold increase) and FGF2 (7-fold increase) were more resistant to proteolytic degradation than the native FGF1. It remained to be elucidated as to whether these pharmacokinetic mechanisms I.e., bioavailability and/or half-life) were enhanced in vivo as well. Therefore, detection of the bioavailability and half-life of native and thermally stable mutated ligands (FGF^ΔTS) are carried out as follows: […]

The test system of series [1] is in vivo rat model of myocardial infarction. Kind of series: In vivo rat ischemia-reperfusion model, infarct size (TTC). As to conditions: rat, given at reperfusion, no heparin co-therapy. Further details: species or system Sprague Dawley rats. The protocol: CVR-2016-799R1 signaling and the other two sets were to evaluate the pharmacokinetic properties of native FGF1 and modified FGF1 (FGF1^ΔHBS). The first set of experiments was for the ischemia/reperfusion study in which animals were divided into six groups as follows: (1) saline group: saline treatment given intravenously for 10 minutes immediately upon reperfusion, (2) heparin group: heparin, 60 U/kg intravenous (i.v.) bolus, given immediately at reperfusion+12 U/kg/hr i.v. infusion for 120 minutes of reperfusion, (3) FGF1 group: FGF1, 10 μg/kg i.v. infusion, given for 10 minutes immediately at reperfusion, (4) FGF1+heparin: heparin, 60 U/kg bolus, given immediately upon reperfusion followed by FGF1, 10 μg/kg i.v. infusion, given for 10 minutes and 12 U/kg/hr i.v. infusion given for 110 minutes of reperfusion, (5) modified FGF1 (FGF1^ΔHBS) group: FGF1^ΔHBS, 10 μg/kg i.v. infusion, given for 10 minutes, or (6) FGF1^ΔHBS+heparin: heparin, 60 U/kg bolus, given immediately at reperfusion followed by FGF1^ΔHBS, 10 μg/kg i.v. infusion, given for 10 minutes and 12 U/kg/hr i.v. infusion for 110 minutes of reperfusion. All rats were subjected to 30 minutes of regional ischemia and 120 minutes of reperfusion. Drugs were administered at the onset of reperfusion via the jugular vein (FIG. 2A). […] A total of ninety-six rats was completed for the I/R study. Sample size for each group ranged from 9-16 depending on the power analysis. A total of thirty-five rats were excluded from the study based on the lack of cyanosis of the heart or typical elevation of the ST segment in the electrocardiogram during ischemia, and death from malignant arrhythmia. For the biodistribution or FGF1 signaling study, rats were randomly divided into six groups as described above (FIG. 2B). Following drug treatment (immediately following 15 minutes of treatment or 105 minutes post-treatment at the point which mimics the length of time of reperfusion), solid organs and blood (see sections “Tissue collection for exogenous FGF1 biodistribution” and “Cardiac preparation to detect the activation of FGF1 downstream molecules”) were collected. A total of 33 rats were used for biodistribution and FGF1 signaling studies, and 3 rats were excluded due to anesthetic overdose. Also, a total of 8 plasma samples were excluded because of hemolysis. For elimination half-life of native FGF1 and FGF1^ΔHBS, 12 rats were randomly divided into two groups and treated intraperitoneally with either FGF1 form as described in the section “Pharmacokinetic evaluation of exogenous FGF1 or FGF1^ΔHBS ”.
The in vivo I/R model was established by ligating and loosening the left anterior CVR-2016-799R1 descending artery (LAD) previously described by our laboratory. In brief, rats were anesthetized with thiobutabarbital sodium salt hydrate, Inactin® hydrate (100 mg/kg, i.p., Sigma-Aldrich), and intubated and artificially ventilated via a rodent respirator (respiratory rate: 75 strokes/minute; tidal volume: 3 mL; Model 683, Harvard, USA). The heart was exposed through a left thoracotomy and pericardiotomy, and a 6-0 silk suture was placed around the left anterior descending (LAD) coronary artery. After equilibration for 15 minutes, hearts were subjected to 30 minutes of ischemia by ligating the LAD via a snare occluder and reperfusion occurred for 120 minute via loosening the snare occluder. The appearance of cyanosis of the heart and significant ST-segment elevation in the electrocardiogram were used to verify successful ligation.
At the end of the ischemia-reperfusion injury study, the LAD was re-occluded with the suture used previously for the establishment of ischemia. 5% Evans blue dye solution was given via the jugular vein to define the area-at-risk (AAR). Then, the heart was arrested in diastole with 1 mL of 15% potassium chloride, and the animal was euthanized with an anesthetic overdose followed by a bilateral pneumothorax for removal of the heart. […]

Entries after “also recorded” stand apart in the source; their conditions may differ.

B1: FGF1^ΔTS: thermally stable mutant of FGF1 containing Q55P, S62I, and H108G FGF1-stabilizing mutations (protein, UniProt P05230 16-155, looked up, variant Q55P S62I H108G)
Fibroblast growth factor 1: FNLPPGNYKKPKLLYCSNGGHFLRILPDGTVDGTRDRSDPHIQLQLIAESVGEVYIKSTETGQYLAMDTDGLLYGSQTPNEECLFLERLEENGYNTYISKKHAEKNWFVGLKKNGSCKRGPRTHYGQKAILFLPLPVSSD
In the case of B1, the “activation of FGF receptors (ERK activation, cell proliferation) (in words)” value in the series with FGF receptors is listed as “greater than the native FGF1”. In addition, the “increase in proteolytic resistance compared to native FGF1” value in the series on trypsin amounted to 20 fold. Also, the “effect on infarct size (in words)” value in series [1] was “marked reduction in infarct size compared to native FGF1 at the same dose; also recorded: more efficacious in reducing infarct size compared to the same dose of native FGF1”.
